Experimental data taken from article PMC11477141, “Chemokine Receptor N-Terminus Charge Dictates Reliance on Post-Translational Modifications for Effective Ligand Capture and Following Boosting by Defense Peptides” (International Journal of Molecular Sciences, 2024).
One block for each molecule: values may come before it. Where no end group is shown, it is not given here.

What was measured:
CCR1 = target: T1, CCR1 (Homo sapiens, UniProt P32246); test: BRET CAMYEL cAMP sensor assay of ligand-induced Gαi signaling via CCR1; assay type: cell-based; conditions: n = 3; for boosting of CCL5-induced Gαi signaling via CCR1 / boosting of CCL7-induced Gαi signaling via CCR1 / effect on CCL3-induced Gαi signaling via CCR1: CHO-K1 cells, 10 µM peptide, chemokine 0-100 nM; for Gαi signaling via CCR1 in DeltaSia and sC cells: CCL5 oligomerization variants experiment; for Gαi signaling via CCR1 compared to WT CCL5: HEK293 WT cells
T1 construct: expressed in transfected cells; host or cells: CHO-K1, CHO-pgsB618 (GAG-minus), HEK293 WT / DeltaSia / sC
T1 sequence (P32246 1-355): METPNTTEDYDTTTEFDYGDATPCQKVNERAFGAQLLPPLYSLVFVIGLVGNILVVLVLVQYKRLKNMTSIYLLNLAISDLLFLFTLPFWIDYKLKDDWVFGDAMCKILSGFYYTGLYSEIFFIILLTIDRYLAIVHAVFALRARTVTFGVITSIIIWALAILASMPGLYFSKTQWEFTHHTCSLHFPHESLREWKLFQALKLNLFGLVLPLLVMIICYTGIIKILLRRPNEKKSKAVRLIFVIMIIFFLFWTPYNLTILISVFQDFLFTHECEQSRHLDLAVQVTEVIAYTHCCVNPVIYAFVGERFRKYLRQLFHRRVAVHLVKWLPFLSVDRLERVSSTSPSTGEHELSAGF
Description: (§1) For quantification of signaling initiated immediate downstream of receptor activation, we used the cAMP binding CAMYEL sensor to perform bioluminescence resonance energy transfer (BRET)-based assays. Shortly, in this assay increased receptor activation leads to an increase in BRET ratio. For detailed information see the Materials and Methods section.
(§2) In signaling assays testing the boosting ability of basic peptides, transfected cells were aliquoted into 96-well plates in the presence of 10 µM peptide or PBS vehicle. After R-Luc substrate addition, chemokines were added to reach final concentrations ranging from 0–100 nM (0, 0.1, 1, 10, and 100 nM) and forskolin was applied before reading emission at 475 and 525 nm.
(§3) BRET measurements of Gαi signaling and β-arrestin recruitment: Cells were seeded in 6-well plates (500,000 cells/well) and transiently transfected the following day. For BRET measurements of Gαi signaling, cells were transfected with vectors encoding the human chemokine receptors as indicated (160 ng/well) and the CAMYEL sensor (cAMP sensor, YFP-Epac-RLuc) (840 ng/well) using Lipofectamine (6 µL/well). Briefly, DNA was dissolved in 125 µL OPTI-MEM and Lipofectamine was dissolved in 125 µL OPTI-MEM. The DNA and Lipofectamine solutions were combined into a transfection mixture. The transfection mixture was added dropwise to cells incubated in OPTI-MEM (1 mL/well). Transfections were terminated after 5 h by adding 1 mL of fresh culture medium on top of the OPTI-MEM. The following day the cells were loosened from the plates in PBS with 5 mM glucose and subsequently aliquoted in white 96-well iso plates (~25,000 cells/well). When using C21TP variants and defense peptides (hBD2 and histatin), these were added to a final concentration of 10 μM/well, while an equal amount of PBS was added to control cells. The bioluminescence substrate coelenterazine was added to a final conc. of 5 µM. After 10 min, varying ligand concentrations were added. For BRET measurements of Gαi signaling, forskolin was added 5 min after the addition of the ligand, to a final conc. of 5 µM. The plates were kept in the dark at all times. A Perkin Elmer Envision machine was used for measuring the emission signals at 530 and 480 nm. The BRET signal is determined as the ratio eYFP (530 nm)/Rluc (480 nm).
(§4) BRET principle with CAMYEL: For quantification of signaling initiated immediately downstream of receptor activation, we used the cAMP binding CAMYEL sensor to perform bioluminescence resonance energy transfer (BRET) based assays. In this assay we measure changes in intracellular cAMP levels in response to receptor activation. Activation of chemokine receptors lead to a decrease in cAMP through inhibition of adenylate cyclase (AC). In the current setup we initially add forskolin that stimulates AC directly to induce an increase in intracellular cAMP, and we then measure the ability of a ligand (chemokine) to counteract the forskolin-induced increase in cAMP. The cAMP sensor (CAMYEL cAMP sensor, YFP-Epac-RLuc) carries the donor Renilla luciferase (Rluc) and the acceptor YFP. Coelenterazine is a substrate for Rluc that will emit light at around 475 nm upon enzymatic cleavage catalyzed by Rluc. When Rluc and YFP are in close proximity, the energy from the emitted light from coelenterazine can be transferred to YFP, resulting in an excitation of YFP, leading to a BRET signal around 525 nm. EPAC is a cAMP binding protein that changes conformation upon cAMP binding. During low cAMP concentrations, Rluc and YFP are near each other, and a strong BRET signal at 525 nm is obtained. When cAMP levels increase, cAMP will bind to EPAC, creating a conformational change, separating Rluc and YFP, reducing the BRET ratio, and increasing the emission from Rluc at 475 nm. Thus, by measuring the ratio between the cAMP-bound (475 nm) and the cAMP-free (525 nm) state of CAMYEL we obtain a measure of receptor activation. […]

naked CCR1 N-terminus = naked CCR1 N-terminus (Homo sapiens, UniProt P32246); test: Fluorescence polarization binding to FAM-labeled CCR1 N-terminal peptide; conditions: FAM-labeled CCR1 N-terminal peptide
Description: (§5) Fluorescence polarization (FP) assay: The carboxyfluorescein (FAM)-labeled peptides representing the CCR1 and CCR5 N-termini functioned as the probes for quantifying the interaction between the receptor N-terminus and C21TP^81-111. The probe was diluted in FP buffer (1:3, PBS:MilliQ) and 10 µL was added to a final concentration of 250 nM per well in a black 384-well plate (Corning). The C21TP^81-111 peptide (2 mM) was diluted using a two-fold dilution series; 30 µL of the peptide was added to each well to final concentrations ranging from 12.21 nM to 100 µM. Blanks containing 10 µL probe and 30 µL FP buffer were included. The plate was spun down at 1000 rpm for 1 min and the FP signal was measured on a Flex station using SoftMax Pro software 7.0. Each experiment was conducted in triplicate. The binding curves were generated by plotting the FP signal, expressed as millipolarization units (mP), against C21TP^81-111 concentration. The dissociation constant (Kd) value was calculated using GraphPad Prism 9.
(§6) Probes: • CCR1: (5,6-FAM)-[…], • CCR5: (5,6-FAM)-ADYQVSSPIYDINYYTSEP.

naked CCR5 N-terminus = test: Fluorescence polarization binding to FAM-labeled CCR5 N-terminal peptide; set-up: species or system human
Description: as §5, §6

CCR2 = conditions: cited from earlier work
From the text: The reliance on electrostatic interactions between basic amino acids in the chemokine and acidic regions in the receptor N-terminus for chemokine receptor binding is illustrated by a study carried out by Hemmerich et al.. To investigate the influence of charge, hydrophobicity, and aromaticity on binding of CCL2 to its cognate receptor CCR2, this group substituted all surface-exposed residues on CCL2 by alanine. […] In contr ...

CCR5-1like = test: BRET CAMYEL Gαi signaling via chimeric receptor M1-CCR5-1like; assay type: cell-based, human; conditions: HEK293 DeltaSia and sC, n = 3
From the text: To finally determine if the lack of acidic amino acids in the CCR5 N-terminus can explain the dependency of this receptor on O-glycosylation for effective ligand interaction, we constructed a CCR5 receptor chimera, where the most acidic N-terminal region of CCR1 was inserted into the CCR5 N-terminus, creating the chimeric receptor CCR5-1like (Figure 7).
Figure 7 Receptor N-termini representing CCR1, CCR5, and the chimeric CCR5-1like. The CCR1 N-terminus contains a lot of acidic amino acids (outlined in red) in the form of aspartic acid (D) and glutamic acid (E), whereas CCR5 only contains a few. The chimeric receptor CCR5-1like that contains part of the CCR1 receptor N-terminus (ETTTDYDE) resembles CCR1 with regard to acidic amino acid content and spacing, but they are not the same.
as §3
as §4, with “nm.” for “nm. EPAC is a cAMP binding protein that changes conformation upon cAMP binding. During low cAMP concentrations, Rluc and YFP are near each other, and a strong BRET signal at 525 nm is obtained. When cAMP levels increase, cAMP will bind to EPAC, creating a conformational change, separating Rluc and YFP, reducing the BRET ratio, and increasing the emission from Rluc at 475 nm. Thus, by measuring the ratio between the cAMP-bound (475 nm) and the cAMP-free (525 nm) state of CAMYEL we obtain a measure of receptor activation.”

CCR5 = target: T2, CCR5 (Homo sapiens, UniProt P51681); test: BRET CAMYEL cAMP sensor assay of ligand-induced Gαi signaling via CCR5; assay type: cell-based; conditions: n = 3; for Gαi signaling via CCR5 in DeltaSia cells compared to WT cells: HEK293 DeltaSia (ST3GAL1/2 KO); for Gαi signaling via CCR5 in sC cells compared to WT cells: HEK293 sC (C1GALT1 KO); for Gαi signaling via M1-CCR5 in DeltaSia and sC cells compared to WT cells: M1-tagged CCR5, HEK293 DeltaSia and sC; for Gαi signaling via CCR5 in DeltaSia and sC cells: HEK293 DeltaSia and sC, CCL5 oligomerization variants experiment; for Gαi signaling via CCR5 compared to WT CCL5: HEK293 WT cells
T2 construct: expressed in transfected cells; host or cells: CHO-K1, CHO-pgsB618 (GAG-minus), HEK293 WT / DeltaSia / sC
Description: as §1, §2, §3, §4

T2 sequence (P51681 whole entry): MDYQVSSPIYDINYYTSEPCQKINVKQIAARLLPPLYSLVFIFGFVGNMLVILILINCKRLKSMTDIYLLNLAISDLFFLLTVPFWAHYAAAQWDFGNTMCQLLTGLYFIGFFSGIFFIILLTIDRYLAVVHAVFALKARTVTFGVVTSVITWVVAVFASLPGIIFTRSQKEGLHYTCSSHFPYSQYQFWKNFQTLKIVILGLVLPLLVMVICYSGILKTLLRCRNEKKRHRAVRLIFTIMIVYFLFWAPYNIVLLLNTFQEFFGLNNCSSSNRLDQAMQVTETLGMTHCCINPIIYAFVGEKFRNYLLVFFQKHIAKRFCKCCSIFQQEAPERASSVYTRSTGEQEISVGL
Sequence of naked CCR1 N-terminus (P32246 with tags, fused parts or gaps limits assumed): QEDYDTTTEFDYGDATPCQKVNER

Molecule: K35E: CCL2 with K35 substituted by glutamic acid (literature)
reduction of CCL2 binding to CCR2 by substitution in CCL2 (CCR2): ≥ 1600 fold

Molecule: R24E: CCL2 with R24 substituted by glutamic acid (literature)
reduction of CCL2 binding to CCR2 by substitution in CCL2 (CCR2): ≥ 1600 fold

Molecule: R24A: CCL2 with R24A substitution (literature)
reduction of CCL2 binding to CCR2 by substitution in CCL2 (CCR2): ~ 30 fold

Molecule: CCL3: human chemokine from Peprotech, overall acidic
Gαi signaling via CCR1 in DeltaSia and sC cells compared to WT cells (CCR1; HEK293 DeltaSia and sC): persists in DeltaSia and sC to almost the same high level as observed in WT cells
Gαi signaling via M1-CCR5-1like in DeltaSia and sC cells compared to WT cells (CCR5-1like): persists in DeltaSia and sC to almost the same high level as observed in WT cells
Gαi signaling via CCR5 in DeltaSia cells compared to WT cells (CCR5): drastically reduced
Gαi signaling via CCR5 in sC cells compared to WT cells (CCR5): drastically reduced
Gαi signaling via M1-CCR5 in DeltaSia and sC cells compared to WT cells (CCR5): drastically reduced

B2: E26A: mutant version of CCL5, obligate tetramer, expressed in E. coli (protein, UniProt P13501 24-91, looked up, variant E26A)
C-C motif chemokine 5: SPYSSDTTPCCFAYIARPLPRAHIKAYFYTSGKCSNPAVVFVTRKNRQVCANPEKKWVREYINSLEMS
Gαi signaling via CCR1 in DeltaSia and sC cells (CCR1; HEK293 DeltaSia and sC): remains high
Gαi signaling via CCR1 compared to WT CCL5 (CCR1): WT-like signaling
Gαi signaling via CCR5 in DeltaSia and sC cells (CCR5): very low
Gαi signaling via CCR5 compared to WT CCL5 (CCR5): WT-like signaling

B3: E66A: mutant version of CCL5, obligate dimer, expressed in E. coli (protein, UniProt P13501 24-91, looked up, variant E66A)
C-C motif chemokine 5: SPYSSDTTPCCFAYIARPLPRAHIKEYFYTSGKCSNPAVVFVTRKNRQVCANPEKKWVREYINSLAMS
modifications: also: obligate dimer
notes: mutant version of CCL5, obligate dimer, expressed in E. coli
Gαi signaling via CCR1 in DeltaSia and sC cells (CCR1; HEK293 DeltaSia and sC): remains high
Gαi signaling via CCR1 compared to WT CCL5 (CCR1): WT-like signaling
Gαi signaling via CCR5 in DeltaSia and sC cells (CCR5): very low
Gαi signaling via CCR5 compared to WT CCL5 (CCR5): WT-like signaling

More lines, main results first:

effect on CCL3-induced Gαi signaling via CCR1 (CCR1): not affected
binding to the naked CCR1 N-terminus (naked CCR1 N-terminus): bind in a dose-dependent manner
binding to the naked CCR5 N-terminus (naked CCR5 N-terminus): neither of the HDPs bound
Molecule: histatin1: human host defense peptide, less basic than hBD2, from Caslo (DSHEKRHHGYRRKFHEKHHSHREFPFYGDYGSNYLYDN) [reference compound]
boosting of CCL5-induced Gαi signaling via CCR1 (CCR1): also boosted the potency of both these chemokines, although to a lesser extent
boosting of CCL7-induced Gαi signaling via CCR1 (CCR1): also boosted the potency of both these chemokines, although to a lesser extent

effect on CCL3-induced Gαi signaling via CCR1 (CCR1): not affected
binding to the naked CCR1 N-terminus (naked CCR1 N-terminus): bind in a dose-dependent manner
binding to the naked CCR5 N-terminus (naked CCR5 N-terminus): neither of the HDPs bound
Molecule: human beta defensin 2 (GIGDPVTCLKSGAICHPVFCPRRYKQIGTCGLPGTKCCKKP; ends and bridges not checked; cysteine pairing not given here) [hBD2, human anti-microbial / host defense peptide, from Caslo, reference compound]
boosting of CCL5-induced Gαi signaling via CCR1 (CCR1): as efficient in boosting signaling via CCR1 by CCL5 and CCL7 as C21TP^81-111
boosting of CCL7-induced Gαi signaling via CCR1 (CCR1): as efficient in boosting signaling via CCR1 by CCL5 and CCL7 as C21TP^81-111

Gαi signaling via CCR5 in DeltaSia cells compared to WT cells (CCR5): drastically reduced
Gαi signaling via CCR5 in sC cells compared to WT cells (CCR5): drastically reduced
Gαi signaling via M1-CCR5 in DeltaSia and sC cells compared to WT cells (CCR5): drastically reduced
B1: CCL8: human chemokine from Peprotech (protein, UniProt P80075 24-99, looked up)
C-C motif chemokine 8: QPDSVSIPITCCFNVINRKIPIQRLESYTRITNIQCPKEAVIFKTKRGKEVCADPKERWVRDSMKHLDQIFQNLKP
Gαi signaling via M1-CCR5-1like in DeltaSia and sC cells compared to WT cells (CCR5-1like): persists in DeltaSia and sC to almost the same high level as observed in WT cells
